The target in assay [1] is Recombinant Aspf2 (A. fumigatus) lacking the N-terminal 19-amino acid signal peptide, His-tagged (Aspergillus fumigatus) (UniProt P79017). As to the kind of experiment: BLI; Aspf2 loaded on Ni(II)-NTA biosensor; analyte Factor H 190-3,000 nM (150 s association, 150 s dissociation) or plasminogen 687.5-5,500 nM (200 s each); buffer control subtracted, BLITZ software. (Biolayer interferometry detects binding as a change in optical thickness at a sensor tip.)

Assay [2] concerns the target Aspf2 expressed on the surface of A. fumigatus conidia (Aspergillus fumigatus (endogenous in CEA17 ΔakuB^Ku80 conidia)) (UniProt P79017). As to the kind of experiment: flow cytometry on cells; wild-type, Δaspf2 and aspf2^C conidia (BSA-treated) incubated with increasing amounts of purified Factor H, FHL-1, FHR1 or plasminogen 1 h at RT; bound protein detected with antibodies; median fluorescence intensity. For orientation: A flow cytometer gives signals particle by particle.

Assay [3] has the same target. The description is as above. This is another data set of the same source.
For assay [4], the target named is T1, Human Factor H (human, UniProt P08603 19-1231).
T1 construct: human complement Factor H, 150-kDa plasma protein composed of 20 short conserved repeats (SCR); also called NHS derived Factor H; source: bought: CompTech (purified human Factor H); also in normal human serum (NHS-EDTA) and C3 depleted serum
T1 sequence (P08603 19-1231): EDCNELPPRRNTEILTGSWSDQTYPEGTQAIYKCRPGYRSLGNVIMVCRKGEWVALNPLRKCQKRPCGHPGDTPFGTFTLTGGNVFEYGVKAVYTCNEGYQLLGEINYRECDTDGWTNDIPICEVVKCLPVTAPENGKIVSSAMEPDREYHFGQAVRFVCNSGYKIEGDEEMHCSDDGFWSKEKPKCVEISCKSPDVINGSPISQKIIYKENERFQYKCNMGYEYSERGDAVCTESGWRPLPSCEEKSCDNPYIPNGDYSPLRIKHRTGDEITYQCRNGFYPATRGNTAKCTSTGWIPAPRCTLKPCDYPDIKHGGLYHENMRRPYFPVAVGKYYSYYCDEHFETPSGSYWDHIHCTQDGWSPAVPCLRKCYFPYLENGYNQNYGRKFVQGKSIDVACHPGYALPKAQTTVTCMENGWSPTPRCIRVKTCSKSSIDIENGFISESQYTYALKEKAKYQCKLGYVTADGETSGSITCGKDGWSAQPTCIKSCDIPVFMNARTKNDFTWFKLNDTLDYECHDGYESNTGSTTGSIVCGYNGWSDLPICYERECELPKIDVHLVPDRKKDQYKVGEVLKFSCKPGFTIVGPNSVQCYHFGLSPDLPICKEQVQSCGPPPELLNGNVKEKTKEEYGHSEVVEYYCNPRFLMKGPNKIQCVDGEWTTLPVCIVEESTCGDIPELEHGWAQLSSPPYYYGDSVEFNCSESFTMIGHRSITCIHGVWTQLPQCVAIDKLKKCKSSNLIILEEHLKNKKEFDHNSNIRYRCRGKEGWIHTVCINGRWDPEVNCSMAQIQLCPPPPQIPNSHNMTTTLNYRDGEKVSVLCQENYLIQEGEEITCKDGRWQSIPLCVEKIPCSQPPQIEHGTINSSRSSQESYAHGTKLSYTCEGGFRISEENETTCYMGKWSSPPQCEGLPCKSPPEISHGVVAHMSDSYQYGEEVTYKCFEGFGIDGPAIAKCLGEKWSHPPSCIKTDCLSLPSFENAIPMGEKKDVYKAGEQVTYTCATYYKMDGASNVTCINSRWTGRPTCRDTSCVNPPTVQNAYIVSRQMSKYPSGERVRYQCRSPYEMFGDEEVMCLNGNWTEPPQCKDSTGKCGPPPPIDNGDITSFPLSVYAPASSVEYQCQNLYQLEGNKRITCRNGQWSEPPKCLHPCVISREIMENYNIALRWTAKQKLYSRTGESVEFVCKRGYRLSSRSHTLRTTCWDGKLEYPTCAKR
As to the kind of experiment: BLI; Aspf2 loaded on Ni(II)-NTA biosensor; analyte Factor H 190-3,000 nM (150 s association, 150 s dissociation) or plasminogen 687.5-5,500 nM (200 s each); buffer control subtracted, BLITZ software. As to conditions: both partners purified.

Like-named read-outs stand apart in the source and are kept apart here.

Usually Kd stands for the constant that tells how readily two partners part at equilibrium. With Human plasminogen (natural protein), the Kd in assay [1] was 846 nM. For the same molecule, the percent lower binding to Δaspf2 conidia than to wild-type conidia (plasminogen at 20 µg/ml) is 31% in assay [2] and 24% in assay [3].

B1: Recombinant Aspf2 (A. fumigatus) lacking the N-terminal 19-amino acid signal peptide, His-tagged (natural protein, Aspergillus fumigatus, UniProt P79017 20-310, looked up)
chain: TLPTSPVPIAARATPHEPVFFSWDAGAVTSFPIHSSCNATQRRQIEAGLNEAVELARHAKAHILRWGNESEIYRKYFGNRPTMEAVGAYDVIVNGDKANVLFRCDNPDGNCALEGWGGHWRGANATSETVICDRSYTTRRWLVSMCSQGYTVAGSETNTFWASDLMHRLYHVPAVGQGWVDHFADGYDEVIALAKSNGTESTHDSEALQYFALEAYAFDIAAPGVGCAGESHGPDQGHDTGSASAPASTSTSSSSSGSGSGATTTPTDSPSATIDVPSNCHTHEGGQLHCT
notes: Aspf2 of Aspergillus fumigatus, a 310 amino acid-long protein; cloned from cDNA of strain CEA17 akuB^KU80 without the N-terminal 19-amino acid signal peptide; also called ΔN19AspF2; source: Pichia pastoris X33 (pPICZαB), culture supernatant, purified (HisTrap column)
Molecule B1 had a Kd in assay [4] of 76 nM.

The values above are taken from paper PMC6106110, “Aspf2 From Aspergillus fumigatus Recruits Human Immune Regulators for Immune Evasion and Cell Damage” (Frontiers in Immunology, 2018).
